± gives the standard error. For some assays here: Variants at the floor of the assay were thinned out. Bounds are passed on as bounds.

The results in this text go back to the supplement of paper PMC7125110.

B1: glmS ribozyme (parent)
chain: AUAAAAGCGCCAGAACUACAGAAAUGUAGUUGACGAGGAGGAGGUUUAUCGAAUUUUCGGCGGAUGCCUCCAAA

Common to all, as to conditions: with glucosamine-6-phosphate
Data set [1] covers variants of B1. In words: kcat; higher = faster cleavage; RNA array. The essentials:
(§1)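 Weighted Michaelis–Menten fits across concentrations supplied kcat and KM, based on kobs from one- or two-exponential decay fits to normalised per-tile medians. The data came from barcoded ribozyme variants transcribed in situ by E. coli RNA polymerase on sequenced MiSeq chips and tracked at 37 °C by a hybridised Cy3 probe. Glucosamine-6-phosphate (40 μM to 10 mM) in HEPES/KCl/Mg(OAc)2 buffer was flowed in.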

In data set [2] the parent is B1. In words: self-cleavage kobs at 40 uM GlcN6P; higher = faster cleavage; RNA array. The essentials:
as §1

Variants of B1 are the subject of data set [3]. In words: self-cleavage kobs at 160 uM GlcN6P; higher = faster cleavage; RNA array. The essentials:
as §1

Data set [4] covers variants of B1. In words: self-cleavage kobs at 640 uM GlcN6P; higher = faster cleavage; RNA array. The essentials: as §1
Variants of B1 are the subject of data set [5]. In words: self-cleavage kobs at 2500 uM GlcN6P; higher = faster cleavage; RNA array. The essentials: as §1
Variants of B1 are the subject of data set [6]. In words: self-cleavage kobs at 10000 uM GlcN6P; higher = faster cleavage; RNA array. The gist of the method: as §1
The variants in data set [7] derive from B1. Put plainly: KM; higher = weaker cofactor use; RNA array. The essentials:
as §1

For AUAAAAGCGCCAGAGCUACAGAAAUGUAGUUGACGAGGGGGAGGUUUAUCGAAUUUUCGGCGGAUGCCUCCAAA, the kcat in data set [1] was found to be 0.024 ± 0.0095 s⁻¹. Also, the “self-cleavage kobs at 40 uM GlcN6P” value in data set [2] was determined as 0.0013 ± 0.00018 s⁻¹. Also, the “self-cleavage kobs at 160 uM GlcN6P” value in data set [3] came to 0.00251 ± 0.00078 s⁻¹. In addition, the “self-cleavage kobs at 640 uM GlcN6P” value in data set [4] came to 0.0174 ± 0.0035 s⁻¹. In addition, in data set [5], the “self-cleavage kobs at 2500 uM GlcN6P” value was 0.037 ± 0.017 s⁻¹. For the same variant, the “self-cleavage kobs at 10000 uM GlcN6P” value in data set [6] amounted to 0.0199 ± 0.0048 s⁻¹.
For the variant AUAAAAGCGCCAGAACUACAGAAAUGUAGUUGACGAGGAGGAGGUUUAUCGAAGUUUCGACGGAUGCCUCCAAA, the catalytic constant (kcat) in data set [1] came to 2.28e-05 ± 5.4e-06 s⁻¹. For the same variant, the “self-cleavage kobs at 160 uM GlcN6P” value in data set [3] was below 1e-05 s⁻¹.
Turning to AUAAAAGCGCCAGAACUACAGAAAUGUAGUUGACGAGGAGGAGGAUGAUCGAAUUUUCGGCGGAUGCCUCCAAA, the kcat in data set [1] turned out to be 0.0105 ± 0.0027 s⁻¹. In addition, the Michaelis-Menten constant (KM) in data set [7] turned out to be 1910 ± 690 µM. In data set [2], the “self-cleavage kobs at 40 uM GlcN6P” value was 0.000279 ± 6e-05 s⁻¹. Also, the “self-cleavage kobs at 160 uM GlcN6P” value in data set [3] came to 0.000689 ± 0.00013 s⁻¹. In data set [4], the “self-cleavage kobs at 640 uM GlcN6P” value worked out at 0.00261 ± 0.00054 s⁻¹. Also, the “self-cleavage kobs at 2500 uM GlcN6P” value in data set [5] is 0.00915 ± 0.0018 s⁻¹. The “self-cleavage kobs at 10000 uM GlcN6P” value in data set [6] was 0.00802 ± 0.0015 s⁻¹.
On to AUAAAAGCGCCAGAACUACAGAAAUGUAGCUGACGAGGAGGAGGUUUAUCGAAUUUUCGGCGGAUGCCUGCAAA, for which, in data set [1], the catalytic constant (kcat) was 5.67e-05 ± 5.3e-06 s⁻¹. Besides, in data set [3], the “self-cleavage kobs at 160 uM GlcN6P” value is 5.73e-05 ± 1.4e-05 s⁻¹. Further, in data set [4], the “self-cleavage kobs at 640 uM GlcN6P” value is 6.49e-05 ± 1.1e-05 s⁻¹. In data set [5], the “self-cleavage kobs at 2500 uM GlcN6P” value amounted to 4.88e-05 ± 9e-06 s⁻¹. In data set [6], the “self-cleavage kobs at 10000 uM GlcN6P” value amounted to 5.52e-05 ± 1e-05 s⁻¹.
With AUAAAAGCGCCAGAACUACAGAAAUGUAGCUGACGAGGAGGAGGUUUAUCGAAUUUUCGGCGGAUGCCUCCAAA, the turnover number (kcat) in data set [1] was determined as 0.000469 ± 2.4e-05 s⁻¹. In addition, the Michaelis constant (KM) in data set [7] stood at 1950 ± 180 µM. Besides, the “self-cleavage kobs at 160 uM GlcN6P” value in data set [3] is 4.18e-05 ± 1.9e-06 s⁻¹. Further, the “self-cleavage kobs at 640 uM GlcN6P” value in data set [4] amounted to 0.000113 ± 2e-06 s⁻¹. The “self-cleavage kobs at 2500 uM GlcN6P” value in data set [5] stood at 0.000759 ± 0.00027 s⁻¹. In data set [6], the “self-cleavage kobs at 10000 uM GlcN6P” value worked out at 0.000395 ± 6.5e-06 s⁻¹.
Consider AUAAAAGCGCCAGAGCUACAGAAAUGUAGUUGACGAGGAGGCGGUUUAUCGAAUUUUCGGCGGAUGCCUCCAAA, for which, in data set [1], the kcat stood at 1.26e-05 ± 4.1e-06 s⁻¹. For the same variant, the “self-cleavage kobs at 160 uM GlcN6P” value in data set [3] was below 1e-05 s⁻¹.
The matching figures for AUAAAAGCGCCAGAACUACAGAAAUGUAGUUGACGAGGAGGAGGUUUGUCGAAUUUUCGGCGGAAGCCUCCAAA: below 1e-05 s⁻¹ and below 1e-05 s⁻¹.
Regarding AUAAAAGCGCCAGAACUACAGAAAUGUAGUUGACGAGGUGGAGGUUUAUCGAAUUUUGGGCGGAUGCCUCCAAA, the turnover number (kcat) in data set [1] amounted to 0.000106 ± 3.3e-06 s⁻¹. Moreover, the Michaelis-Menten constant (KM) in data set [7] was 9290 ± 520 µM. Moreover, the “self-cleavage kobs at 2500 uM GlcN6P” value in data set [5] worked out at 2.25e-05 ± 1e-05 s⁻¹. Moreover, the “self-cleavage kobs at 10000 uM GlcN6P” value in data set [6] is 5.48e-05 ± 1.2e-05 s⁻¹.
As for AUAAAAGCGCCAGAACUACAGAAAUGUAGUUGACGAGGAGGAGGUUUAUUGAAUUUUCGGCGGAUGCUUCCAAA, the kcat in data set [1] came to 2.09e-05 ± 3.8e-06 s⁻¹. The “self-cleavage kobs at 2500 uM GlcN6P” value in data set [5] turned out to be 3e-05 ± 1.2e-05 s⁻¹.
Regarding AUAAAAGCGCAAGAACUACAGAAAUGUAGUUGACGAGGAGGAGGUUUAUCGAAAUUUCGGCGGAUGCCUCCAAA, in data set [1], the kcat came out at 0.000163 ± 1.3e-05 s⁻¹. The Michaelis-Menten constant (KM) in data set [7] amounted to 1490 ± 400 µM. In data set [4], the “self-cleavage kobs at 640 uM GlcN6P” value was found to be 5.49e-05 ± 1.4e-05 s⁻¹. The “self-cleavage kobs at 2500 uM GlcN6P” value in data set [5] stood at 9.05e-05 ± 1.9e-05 s⁻¹. Besides, in data set [6], the “self-cleavage kobs at 10000 uM GlcN6P” value was determined as 0.000145 ± 1.4e-05 s⁻¹.
AUAAAAGCGCCAGAACUACAGAAAUGUAGAUGACGAAGAGGAGGUUUAUCGAAUUUUCGGCGGAUGCCUCCAAA: in data set [1], the kcat is 0.000308 ± 0.00011 s⁻¹. In addition, the “self-cleavage kobs at 160 uM GlcN6P” value in data set [3] was 3.75e-05 ± 1.2e-05 s⁻¹. Also, the “self-cleavage kobs at 640 uM GlcN6P” value in data set [4] was found to be 6.25e-05 ± 1.2e-05 s⁻¹. Moreover, the “self-cleavage kobs at 2500 uM GlcN6P” value in data set [5] was 0.000141 ± 2.9e-05 s⁻¹. The “self-cleavage kobs at 10000 uM GlcN6P” value in data set [6] is 0.000302 ± 7.7e-05 s⁻¹.
Take AUAAAAGCGCCGGAACUACAGAAAUGUAGUUGACGAGGAGUAGGUUUAUCGAAUUUUCGGCGGAUGCCUCCAAA: in data set [1], the kcat came out at 0.000763 ± 4.6e-05 s⁻¹. Further, the “self-cleavage kobs at 640 uM GlcN6P” value in data set [4] was 4.77e-05 ± 1.4e-05 s⁻¹. Also, the “self-cleavage kobs at 2500 uM GlcN6P” value in data set [5] worked out at 0.000147 ± 2.1e-05 s⁻¹. Further, the “self-cleavage kobs at 10000 uM GlcN6P” value in data set [6] is 0.000377 ± 4.1e-05 s⁻¹.
On to AUAAAAACGCCAGAACUACAGAAAUGUAGUUGACGAGGAGGAGGUUUAUCGAUUUUUCGGCGGAUGCCUCCAAA, for which the kcat in data set [1] was 2.79e-05 ± 1.1e-05 s⁻¹.
Turning to AUAAAAGCGCCAGAACUACAGAAAUGUAGUUCACGAGGAGGAGGUUUAUCGAAUGUUCGGCGGAUGCCUCCAAA, in data set [1], the kcat amounted to 0.000137 ± 1.4e-05 s⁻¹. Moreover, the “self-cleavage kobs at 2500 uM GlcN6P” value in data set [5] was found to be 2.64e-05 ± 8.4e-06 s⁻¹. Further, the “self-cleavage kobs at 10000 uM GlcN6P” value in data set [6] stood at 6.68e-05 ± 1.2e-05 s⁻¹.
Turning to AUAAAAGCGCCCGAACUACAGAAAUGUAGUUGACGAGGAGGAGGUUUAUCGAAUUUUCGGCGGAUGCCUCGAAA, in data set [1], the turnover number (kcat) was determined as 0.000645 ± 0.00023 s⁻¹. Also, in data set [2], the “self-cleavage kobs at 40 uM GlcN6P” value worked out at 4.39e-05 ± 8.5e-06 s⁻¹. Besides, the “self-cleavage kobs at 160 uM GlcN6P” value in data set [3] is 0.000153 ± 2.4e-05 s⁻¹. Moreover, in data set [4], the “self-cleavage kobs at 640 uM GlcN6P” value worked out at 0.000264 ± 3e-05 s⁻¹. Besides, the “self-cleavage kobs at 2500 uM GlcN6P” value in data set [5] was determined as 0.000424 ± 7.3e-05 s⁻¹. Further, the “self-cleavage kobs at 10000 uM GlcN6P” value in data set [6] was determined as 0.00109 ± 0.00015 s⁻¹.
Turning to AUAAAAGCGCCAGAACUACAGAAAUGUAGUUGACGAGGAGGAGGUUUAUCGAAUUUUCGGGGCAUGCCUCCAAA, the kcat in data set [1] was below 1e-05 s⁻¹. In data set [7], the KM came out at 181 ± 67 µM. In addition, the “self-cleavage kobs at 40 uM GlcN6P” value in data set [2] was below 1e-05 s⁻¹. Moreover, the “self-cleavage kobs at 160 uM GlcN6P” value in data set [3] is below 1e-05 s⁻¹. The “self-cleavage kobs at 2500 uM GlcN6P” value in data set [5] is below 1e-05 s⁻¹.
Consider AUAAAAGCGCCAGAACUACAGAAAUGUAGUUGACGAGGAGGAGGUUUAUCGAAUUUUUGGCGGAUGCCCCCAAA, for which the catalytic constant (kcat) in data set [1] was determined as 2.82e-05 ± 7e-06 s⁻¹. The “self-cleavage kobs at 2500 uM GlcN6P” value in data set [5] worked out at 5.56e-05 ± 1.6e-05 s⁻¹. The “self-cleavage kobs at 10000 uM GlcN6P” value in data set [6] was found to be 2.52e-05 ± 5.6e-06 s⁻¹.
As to AUAAAAGCGCCAGAACUACAGAAAUGUAGUGGACGAGGAGGAGGUUUAUCGAAUGCUCGGCGGAUGCCUCCAAA, in data set [1], the kcat amounted to 0.00133 ± 0.00026 s⁻¹. The Michaelis-Menten constant (KM) in data set [7] was determined as 4490 ± 1500 µM. Also, the “self-cleavage kobs at 160 uM GlcN6P” value in data set [3] worked out at 7.22e-05 ± 2.4e-05 s⁻¹. For the same variant, the “self-cleavage kobs at 640 uM GlcN6P” value in data set [4] is 0.000162 ± 3.4e-05 s⁻¹. In addition, the “self-cleavage kobs at 2500 uM GlcN6P” value in data set [5] was 0.000395 ± 9.8e-05 s⁻¹. The “self-cleavage kobs at 10000 uM GlcN6P” value in data set [6] amounted to 0.000948 ± 0.00012 s⁻¹.
